Measured values as given in patent publication US20110152341.

T1: APP-derived peptide substrate sw E599Q, H-GLTNIKTEEISEVNLDAQFRHDSGYEVHHQ-NH2
T1 chain: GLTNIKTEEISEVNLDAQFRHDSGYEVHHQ

T2: APP-derived peptide substrate D597isoD, H-GLTNIKTEEISEVKMi…-NH2
T2 chain: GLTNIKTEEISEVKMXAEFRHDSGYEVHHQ

T3: APP-derived peptide substrate swedish (sw), H-GLTNIKTEEISEVNLDAEFRHDSGYEVHHQ-NH2
T3 chain: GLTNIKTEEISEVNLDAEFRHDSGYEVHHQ

T4: APP-derived peptide substrate wildtyp (wt), H-GLTNIKTEEISEVKMDAEFRHDSGYEVHHQ-NH2
T4 chain: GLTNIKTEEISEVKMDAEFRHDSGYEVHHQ

T5: APP-derived peptide substrate sw D597isoD, H-GLTNIKTEEISEVNLi…-NH2
T5 chain: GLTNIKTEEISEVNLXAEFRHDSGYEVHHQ

T6: APP-derived peptide substrate E599Q, H-GLTNIKTEEISEVKMDAQFRHDSGYEVHHQ-NH2
T6 chain: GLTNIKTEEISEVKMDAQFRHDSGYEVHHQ


Legend:
[1] = biological target: T1, APP-derived peptide substrate sw E599Q, …
[2] = biological target: T2, APP-derived peptide substrate D597isoD, …
[3] = biological target: T3, APP-derived peptide substrate swedish …
[4] = biological target: T4, APP-derived peptide substrate wildtyp …
[5] = biological target: T5, APP-derived peptide substrate sw …
[6] = biological target: T6, APP-derived peptide substrate E599Q, …
[7] = biological target: Human APP wildtyp transiently overexpressed in HEK293 cells (pcDNA-hAPP)
[8] = biological target: Human APP with swedish mutation K595N, M596L overexpressed in HEK293 cells (pcDNA-hAPPsw)
[9] = biological target: Human APP with mutation E599Q overexpressed in HEK293 cells (pcDNA-hAPP/E3Q)
Human APP with mutation E599Q overexpressed in HEK293 cells (pcDNA-hAPP/E3Q), sequence (chain, as listed by the source E599Q): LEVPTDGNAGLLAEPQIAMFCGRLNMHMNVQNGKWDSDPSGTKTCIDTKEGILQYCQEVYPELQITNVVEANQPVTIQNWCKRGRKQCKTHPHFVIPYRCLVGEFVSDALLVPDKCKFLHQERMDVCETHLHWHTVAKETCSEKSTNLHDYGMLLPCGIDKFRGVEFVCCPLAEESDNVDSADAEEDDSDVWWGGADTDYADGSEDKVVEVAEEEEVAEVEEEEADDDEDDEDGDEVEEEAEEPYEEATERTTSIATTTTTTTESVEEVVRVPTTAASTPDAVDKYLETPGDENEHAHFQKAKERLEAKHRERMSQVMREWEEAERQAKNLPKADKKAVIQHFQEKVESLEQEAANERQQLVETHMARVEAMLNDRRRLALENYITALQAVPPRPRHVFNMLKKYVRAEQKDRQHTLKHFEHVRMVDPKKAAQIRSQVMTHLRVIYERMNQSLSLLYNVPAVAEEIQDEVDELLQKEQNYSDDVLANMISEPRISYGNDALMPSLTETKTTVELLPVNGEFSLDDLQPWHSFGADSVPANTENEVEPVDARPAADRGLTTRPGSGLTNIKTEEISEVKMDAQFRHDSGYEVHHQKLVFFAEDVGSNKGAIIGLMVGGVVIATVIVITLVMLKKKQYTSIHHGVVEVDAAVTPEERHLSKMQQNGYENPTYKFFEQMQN

Protein	peptide cleavage, fragments by MALDI-TOF mass spectrometry (numbering according to substrate 1-30) [1]	peptide cleavage, fragments by MALDI-TOF mass spectrometry (numbering according to substrate 1-30) [2]	peptide cleavage, fragments by MALDI-TOF mass spectrometry (numbering according to substrate 1-30) [3]	peptide cleavage, fragments by MALDI-TOF mass spectrometry (numbering according to substrate 1-30) [4]	peptide cleavage, fragments by MALDI-TOF mass spectrometry (numbering according to substrate 1-30) [5]	peptide cleavage, fragments by MALDI-TOF mass spectrometry (numbering according to substrate 1-30) [6]	amount of secreted Aβ (ELISA from IBL, non specific for the Aβ N-terminus) [7]	generated Aβ species by urea western-blot after immuno-precipitation [7]	secreted Aβ estimated with antibody 6E10 (ELISA) [7]	secretion of Aβ (ELISA, IBL kit with antibody 6E10), with and without 20 µM actinonin [7]	secreted Aβ estimated with antibody 6E10 (ELISA) [8]	amount of secreted Aβ (ELISA from IBL, non specific for the Aβ N-terminus) [9]	secreted Aβ estimated with antibody 6E10 (ELISA) [9]
Recombinant human meprin α (R&D systems) (protein) VPIKYLPEENVHDADFGEQKDISEINLAAGLDLFQGDILLQKSRNGLRDPNTRWTFPIPYILADNLGLNAKGAILYAFEMFRLKSCVDFKPYEGESSYIIFQQFDGCWSEVGDQHVGQNISIGQGCAYKAIIEHEILHALGFYHEQSRTDRDDYVNIWWDQILSGYQHNFDTYDDSLITDLNTPYDYESLMHYQPFSFNKNASVPTITAKIPEFNSIIGQRLDFSAIDLERLNRMYNCTTTHTLLDHCTFEKANICGMIQGTRDDTDWAHQDSAQAGEVDHTLLGQCTGAGYFMQFSTSSGSAEEAALLESRILYPKRKQQCLQFFYKMTGSPSDRLVVWVRRDDSTGNVRKLVKVQTFQGDDDHNWKIAHVVLKEEQKFRYLFQGTKGDPQNSTGGIYLDDITLTETPCPTGVWTVRNFSQVLENTSKGDKLQSPRFYNSEGYGFGVTLYPNSRESSGYLRLAFHVCSGENDAILEWPVENRQVIITILDQEPDVRNRMSSSMVFTTSKSHTSPAINDTVIWDRPSRVGTYHTDCNCFRSIDLGWSGFISHQMLKRRSFLKNDDLIIFVDFEDITHLSQTEVPTKGKRLSPQGLILQGQEQQVSEEGSGKAMLEEALPVSLSQGQPSRQKRSVENTGPLEDHNWPQYFRDPCDPNPCQNDGICVNVKGMASCRCISGHAFFYTGERCQAV	The fragments 1-21, 7-30 and 5-30 were identified.	The fragments 5-30, 7-30, 1-21, 1-15, 17-30 and 16-30 were identified.	The fragments 5-30, 7-30 and 16-30 were identified.	The fragments 5-30, 7-30, 17-30 and 16-30 were identified.	The fragments 5-30 and 7-30 were identified.	The fragments 5-30, 7-30, 5-21, 12-30 and 7-21 were identified.							
Recombinant human meprin β (R&D systems) (protein) TPENFDVDGGMDQDIFDINEGLGLDLFEGDIRLDRAQIRNSIIGEKYRWPHTIPYVLEDSLEMNAKGVILNAFERYRLKTCIDFKPWAGETNYISVFKGSGCWSSVGNRRVGKQELSIGANCDRIATVQHEFLHALGFWHEQSRSDRDDYVRIMWDRILSGREHNFNTYSDDISDSLNVPYDYTSVMHYSKTAFQNGTEPTIVTRISDFEDVIGQRMDFSDSDLLKLNQLYNCSSSLSFMDSCSFELENVCGMIQSSGDNADWQRVSQVPRGPESDHSNMGQCQGSGFFMHFDSSSVNVGATAVLESRTLYPKRGFQCLQFYLYNSGSESDQLNIYIREYSADNVDGNLTLVEEIKEIPTGSWQLYHVTLKVTKKFRVVFEGRKGSGASLGGLSIDDINLSETRCPHHIWHIRNFTQFIGSPNGTLYSPPFYSSKGYAFQIYLNLAHVTNAGIYFHLISGANDDQLQWPCPWQQATMTLLDQNPDIRQRMSNQRSITTDPFMTTDNGNYFWDRPSKVGTVALFSNGTQFRRGGGYGTSAFITHERLKSRDFIKGDDVYILLTVEDISHLNSTQIQLTPAPSVQDLCSKTTCKNDGVCTVRDGKAECRCQSGEDWWYMGERCEKRGSTRDT	The fragments 16-30, 1-15, 9-21 and 9-20 were identified.	The fragments 1-15, 1-16, 17-30 and 16-30 were identified.	The fragments 16-30, 17-30 1-15 and 18-30 were identified.	The fragments 1-16, 1-15, 17-30, and 18-30 were identified.	The fragment 12-30 were identified.	The fragments 8-30, 9-30, 1-22, 1-21, 12-30 17-30 18-30 9-21 were identified.							
Human meprin β transiently overexpressed in HEK293 cells (pcDNA-hMPβ) (protein) NSIIGEKYRWPHTIPYVLEDSLEMNAKGVILNAFERYRLKTCIDFKPWAGETNYISVFKGSGCWSSVGNRRVGKQELSIGANCDRIATVQHEFLHALGFWHEQSRSDRDDYVRIMWDRILSGREHNFNTYSDDISDSLNVPYDYTSVMHYSKTAFQNGTEPTIVTRISDFEDVIGQRMDFSDSDLLKLNQLYNCSSSLSFMDSCSFELENVCGMIQSSGDNADWQRVSQVPRGPESDHSNMGQCQGSGFFMHFDSSSVNVGATAVLESRTLYPKRGFQCLQFYLYNSGSESDQLNIYIREYSADNVDGNLTLVEEIKEIPTGSWQLYHVTLKVTKKFRVVFEGRKGSGASLGGLSIDDINLSETRCPHHIWHIRNFTQFIGSPNGTLYSPPFYSSKGYAFQIYLNLAHVTNAGIYFHLISGANDDQLQWPCPWQQATMTLLDQNPDIRQRMSNQRSITTDPFMTTDNGNYFWDRPSKVGTVALFSNGTQFRRGGGYGTSAFITHERLKSRDFIKGDDVYILLTVEDISHLNSTQIQLTPAPSVQDLCSKTTCKNDGVCTVRDGKAECRCQSGEDWWYMGERCEKRGSTRDTIVIAVSSTVAVFALMLIITLVSVYCTRKKYRERMSSNRPNLTPQNQHAF							significantly increased for APPwt and APP/E3Q	revealed the formation of an additional Aβ species after co-transfection with hAPP and human meprin β compared to transfection with hAPP. This additional Aβ species co-migrates with Aβ3-40.	Secretion of Aβ is significantly increased after transfection with pcDNA-hMPβ and pcDNA-hAPP wildtyp, swedish and E3Q.	Secretion of Aβ is significantly increased in HEK293 after transient overexpression of hAPP and hMPβ (see FIG. 26). This increase is reduced to almost the basal level by the addition of 20 µM actinonin.	Secretion of Aβ is significantly increased after transfection with pcDNA-hMPβ and pcDNA-hAPP wildtyp, swedish and E3Q.	significantly increased for APPwt and APP/E3Q	Secretion of Aβ is significantly increased after transfection with pcDNA-hMPβ and pcDNA-hAPP wildtyp, swedish and E3Q.
